In patent US20070065439A1 (Amgen, published 2007):

Columns and labels:
[1] = biological target: T1, Recombinant human IL-1beta (rhIL-1b) (human, UniProt P01584 117-269); experiment: Biacore low-res, mAb captured, 25C; IL-1β in solution (118 nM) over captured mAb; low-resolution Biacore, 25 C
T1 construct: R&D Systems Cat. No. 201-LB/CF; also called IL-1β; human IL-1β

[2] = biological target: T1, Recombinant human IL-1beta (rhIL-1b); experiment: cell-based or functional assay
[3] = biological target: T1, Recombinant human IL-1beta (rhIL-1b); experiment: cell-based or functional assay; remark: listed apart in the source
[4] = biological target: T1, Recombinant human IL-1beta (rhIL-1b); experiment: Biacore, Low Resolution screen
IL-1β R11A mutant = biological target: T2, IL-1β R11A mutant (human, UniProt P01584 117-269); experiment: binding to site-directed IL-1β mutant; X = abrogation of binding
T2 construct: site-directed mutant

IL-1β R4A mutant = biological target: T3, IL-1β R4A mutant (human, UniProt P01584 117-269); experiment: as above
T3 construct: site-directed mutant

[5] = biological target: T1, Recombinant human IL-1beta (rhIL-1b); experiment: Biacore, Medium Resolution; IL-1β in solution; medium-resolution Biacore
[6] = biological target: T1, Recombinant human IL-1beta (rhIL-1b); experiment: Biacore high-res, mAb amine-coupled, 23C
[7] = biological target: T1, Recombinant human IL-1beta (rhIL-1b); experiment: cell-based or functional assay; remark: listed apart in the source
[8] = biological target: T1, Recombinant human IL-1beta (rhIL-1b); experiment: KinExA, triple curve analysis
[9] = biological target: T1, Recombinant human IL-1beta (rhIL-1b); experiment: cell-based or functional assay; remark: listed apart in the source
[10] = biological target: T1, Recombinant human IL-1beta (rhIL-1b); experiment: KinExA, single KD-controlled titration
[11] = biological target: T1, Recombinant human IL-1beta (rhIL-1b); experiment: KinExA, dual curve analysis
IL-1β H30A mutant = biological target: T4, IL-1β H30A mutant (human, UniProt P01584 117-269); experiment: binding to site-directed IL-1β mutants
T4 construct: site-directed mutant

| Kd [1] | koff [1] | kon [1] | % IL-6 production, supernatant 1:5 dilut. [2] | % IL-6 production, supernatant 1:10 dilut. [2] | % IL-6 production, supernatant 1:20 dilut. [2] | EC50, inhibition of IL-1β-induced IL-6 production in MRC-5 cells [3] | Kd [4] | binding result (IL-1β R11A mutant) | binding result (IL-1β R4A mutant) | Kd [5] | koff [5] | kon [5] | Kd [6] | koff [6] | kon [6] | EC50, inhibition of IL-1β-induced IL-8 production in human whole blood [7] | In Vivo Potency EC50, inhibition of IL-6 induced in mice by human IL-1β [9] | Binder | further results |
| --- | --- | --- | --- | --- | --- | --- | --- | --- | --- | --- | --- | --- | --- | --- | --- | --- | --- | --- | --- |
| 712 pM | 0.00042 s⁻¹ | 590000 M⁻¹ s⁻¹ | 6% | 8% | 18% | 3150 pM | 712 pM | no binding | no binding | 580 pM | 0.00058 s⁻¹ | 1e+06 M⁻¹ s⁻¹ |  |  |  |  |  | 5.36.1 (antibody, human IgG4, V domains shown, kappa) VH: QVQLQQSGPGLVKPSQTLSLTCAISGDSVSSNSAAWNWIRQSPSRGLEWLGRTYYRSKWYNDYAVSVKSRITINPDTSKNQFSLQLNSVTPEDTAVYYCAREEQQLVRYYYYYGMDVWGQGTTVTVS VL: DIVMTQTPLSLSVTPGQPASISCKSSQSLLHSDGRTYLYWYLQRPGQPPQLLIYEASYRFSGVPDRFSGSGSGTDFTLKISRVEAEDVGIYYCMQSIQLPRTFGQGTRLEIK |  |
| 629 pM | 0.00022 s⁻¹ | 350000 M⁻¹ s⁻¹ | 2% | 3% | 9% | 536 pM | 629 pM | no binding | no binding | 450 pM | 0.00022 s⁻¹ | 490000 M⁻¹ s⁻¹ | 388 pM | 0.000188 s⁻¹ | 485000 M⁻¹ s⁻¹ | 2290 pM |  | 8.18.1 (antibody, human IgG4, V domains shown, lambda; also called mAb 8.18.1) VH: QVQLQESGPGLVKPSETLSLTCTVSGGSVSSGGYYWSWIRQPPGKGLEWIGYFYYSGSPNYNPSLKRRIAISVDTSKNQFSLRLSSVTAADTAVYYCARDPMHYYGMDVWGQGTTVTVSS VL: SSELTQPPSVSVFPGQTANITCSGDKLGDKFACWYQQKPGQSPVLVIYRDNKRPSGIPERFSGSNSGNTATLTISGTQAMDEADYYCQAWDSSTYVVFGGGTKLTVL |  |
| 478 pM | 0.00044 s⁻¹ | 920000 M⁻¹ s⁻¹ | 9% | 8% | 22% | 591 pM | 478 pM | no binding |  | 200 pM | 0.00038 s⁻¹ | 1.9e+06 M⁻¹ s⁻¹ |  |  |  |  |  | 6.26.1 (antibody, human IgG4, V domains shown, lambda; also called 6.26.4) VH: QLQLQESGPGLVKPSETLSLTCTVSGGSISRSSYYWGWIRQPPGKGLEWMGNIYYSGSTHYNPSLKSRVTISVDTSKNQFSLKLSSVTAADTAVFYCAKGREYISSSGYGMDVWGQGTTVTVS VL: SYELTQPPSVSVSPGQTASITCSGDKLGNKYVCWYQQKPGQSPVLVIFQDSRRPSGIPERFSGSNSGNTATLTISGTQAMDEADYYCQAWDTSTVIFGGGTKLTVL |  |
|  |  |  |  |  |  | 4 pM |  |  |  |  |  |  |  |  |  | 69 pM | 8 pmoles/mouse | 9.5.2 IgG2 (antibody, V domains shown, also called mAb 9.5.2 (IgG2 isotype); 9.5.2 IgG2λ) VH: EVQLVESGGGLVKPGRSLRLSCTGSGFTFGDYALNWFRQAPGMGLEWVGFIRGKAYGGTTEYAASVKGRFTISRDDSKSIAYLQMNSLKTEDTAVYYCNREVEYCRSSENYCYGMDVWGQGTTVTVS VL: not shown | Kd [8]: 0.204 pM; Kd [10]: 0.041 pM |
|  |  |  |  |  |  | 1 pM |  |  |  |  |  |  |  |  |  | 106 pM | 5 pmoles/mouse | 9.5.2 IgG1 (antibody, V domains shown) VH: EVQLVESGGGLVKPGRSLRLSCTGSGFTFGDYALNWFRQAPGMGLEWVGFIRGKAYGGTTEYAASVKGRFTISRDDSKSIAYLQMNSLKTEDTAVYYCNREVEYCRSSENYCYGMDVWGQGTTVTVS VL: not shown |  |
| 320 pM | 0.00016 s⁻¹ | 500000 M⁻¹ s⁻¹ | 13% | 22% | 22% | 1060 pM | 320 pM | no binding |  | 140 pM | 0.00014 s⁻¹ | 970000 M⁻¹ s⁻¹ | 236 pM | 0.000259 s⁻¹ | 1.1e+06 M⁻¹ s⁻¹ |  |  | 6.33.1 (antibody, human IgG4, V domains shown, lambda; also called mAb 6.33.1) VH: QVQLVESGGGVVQPGRSLRLSCAASGFTFSVYGMHWVRQAPGKGLEWVAVIWYDGSNKYYADSVKGRFTISRDNSKNTLYLQMNSLRAEDTAVYYCAREKSSGWFFDYWGQGTLVTVSS VL: QSALTQPASVSGSPGQSITISCTGTSSDVGSYNLVSWYQQHPGKAPKLMIYEVSKRPSGISNRFSGSKSGNTASLTISGLQAEDEADYYCCSYAGNSIWVFGGGTKLTVL |  |
| 290 pM | 0.0002 s⁻¹ | 690000 M⁻¹ s⁻¹ | 4% | 3% | 10% | 2670 pM | 290 pM | no binding |  | 140 pM | 0.00023 s⁻¹ | 1.6e+06 M⁻¹ s⁻¹ |  |  |  |  |  | 9.11.1 (antibody, human IgG4, V domains shown, lambda; also called 9.11.3) VH: QVQLVESGGGVVQPGRSLRLSCAASGFTFSVYGMHWVRQAPGKGLEWVAVIWYDGNNKYYVDSVKGRFTISRDNSKNTLYLQLNSLRAEDTAVYYCARERSSSWYFDYWGQGTLVTVSS VL: QSALTQPASVSGSSGQSITISCTGTSSDVGSYNLVSWYQQHPGKAPKLMIYEVSKRPSGVSNRFSGSKSGNTASLTISGLQAEDEADYYCCSYAGNSNWVFGGGTKLTVL |  |
| 278 pM | 0.0005 s⁻¹ | 1.8e+06 M⁻¹ s⁻¹ | 1% | 3% | 6% | 216 pM | 278 pM | no binding | no binding | 180 pM | 0.00057 s⁻¹ | 3.1e+06 M⁻¹ s⁻¹ | 44.7 pM | 0.000704 s⁻¹ | 1.57e+07 M⁻¹ s⁻¹ | 1670 pM | 51 pmoles/mouse | 5.5.1 (antibody, IgG4, V domains shown, lambda; also called mAb 5.5.1; Ab 5.5.1) VH: QVQLVESGGGVVQPGRSLRLSCAASGFTFSSYGMHWVRQAPGKGLEWVAVIWYDGDNKYYADSVQGRFTISRDNSKNTLYLQMNSLRPEDTAVYYCARERSSSWYFDYWGQGTLVTVSS VL: QSALTQPASVSGSPGQSITISCTGTSSDVGSYNLVSWYQQHPGKAPKLMIYEVSKRPSGISNRFSGSKSGNTASLTISGLQAEDEADYYCCSYAGSSTWVFGGGTKLTVL | Kd [11]: 20 pM; binding result (IL-1β H30A mutant): binds; Kd [10]: 19 pM |
| 5000 pM |  |  |  |  |  |  |  | no binding | no binding |  |  |  |  |  |  |  |  | 4.20.1 (antibody, human IgG4, V domains shown, kappa; also called 4.20.2) VH: QVQLVESGGGVVQPGRSLRLSCAASGFTFSNYGMNWVRQAPGKGLEWVAVIWYDGNNKSEADSVKGRFTISRDNSKNTLYLQMNSLRAEDTAVYYCARDSRSGPFDYWGQGTLVTVSS VL: EIVLTQSPDFQSVTPKEKVTITCRASQSIGSSLHWYQQKPDQSPKLLIKFASQSFSGVPSRISGSGSGTDFTLTINSLEAEDAATYYCHQSSSLPFTFGPGTKVDIK |  |
